The assay addresses RBD (a.a. 333-529) of SARS-CoV-2 S fused to the Fc region of IgG1 (SARS-CoV-2; human) (UniProt P0DTC2). Nature of the assay: BLI, RBD-IgG1 captured on anti-human Fc sensor, dimeric sACE22 as analyte (avid). (In general: In BLI a coated tip is dipped into the sample, and binding shifts an interference pattern.)

What is called kon is a measure of how fast the partners come together. Lower therefore signals slow association. On to “untagged sACE22.v2.4 manufactured in ExpiCHO-S cells (from UniProt Q9BYF1 19-732) (receptor)”, for which the kon worked out at 200000 M⁻¹ s⁻¹.

The values are drawn from patent US20230193235A1.
